This note sets out measurements from US10253076B2, “Peptides and combination of peptides for use in immunotherapy against ovarian cancer and other cancers” (immatics biotechnologies GmbH, priority 2015, dated 2019).

For the test, the target named is HLA-A*02:01 (Homo sapiens, UniProt P04439, D140Y/D185E/D98H/E176V/E277Q/G131W/G231S/I119V/I121R/I166T/I218V/L300P/L318F/N151K/N90K/P208A/P217A/Q86G/Q94H/R138H/R169H/T345S). The test is described as follows: MHC binding assay (UV-ligand exchange, beta2m ELISA, peptide exchange yield). The note with it: binding of HLA-class I restricted peptides to HLA-A*02:01, ranged by peptide exchange yield (UV-ligand exchange, β2m ELISA). The procedure, abridged:
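Peptide–HLA-A*02:01 complexes made by UV-mediated exchange of a photocleavable peptide with the test peptide. Exchange products diluted 100-fold on streptavidin-coated plates, 1 h at 37°C, then HRP anti-β2m 1 h at 37°C; TMB read at 450 nm to give exchange yield.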
(In an ELISA, binding on a coated surface is turned into a signal by an enzyme label.)

With “376 (AMFESSQNVLL; listed as Homo sapiens) [compound 376]”, the Peptide exchange result is “″++″ (≥20% = ++)”.
Then “377 (FLLDSSASV; listed as Homo sapiens) [compound 377]”, with “″++″ (≥20% = ++)”; and “378 (ALGYFVPYV; listed as Homo sapiens) [compound 378]”, with “″+++″ (≥50% = +++)”.
As for “379 (IMEGTLTRV; listed as Homo sapiens) [compound 379]”, the Peptide exchange entry is “″++″ (≥20% = ++)”.
To “380 (TLIEDEIATI; listed as Homo sapiens) [compound 380]” belongs “″++″ (≥20% = ++)”; to “381 (FIDEAYVEV; listed as Homo sapiens) [compound 381]”, “″++″ (≥20% = ++)”.
Consider “382 (ALQNYIKEA; listed as Homo sapiens) [compound 382]”, for which the Peptide exchange result is recorded as “″++″ (≥20% = ++)”.
Then “383 (ALLELENSVTL; listed as Homo sapiens) [compound 383]”, with “″+++″ (≥50% = +++)”; and “385 (SLLEQGLVEA; listed as Homo sapiens) [compound 385]”, with “″++″ (≥20% = ++)”.
In the case of “386 (ILFRYPLTI; listed as Homo sapiens) [compound 386]”, the Peptide exchange result was “″+++″ (≥50% = +++)”.
Then “387 (ALFQATAEV; listed as Homo sapiens) [compound 387]”, with “″++++″ (≥75% = ++++)”; and “388 (SLTIDGIRYV; listed as Homo sapiens) [compound 388]”, with “″+++″ (≥50% = +++)”.
Regarding “389 (LLADVTHLL; listed as Homo sapiens) [compound 389]”, the Peptide exchange entry is “″++″ (≥20% = ++)”.
Consider “390 (ALFMKQIYL; listed as Homo sapiens) [compound 390]”, for which the Peptide exchange entry is given as “″+++″ (≥50% = +++)”.
With “391 (YVYPQRLNFV; listed as Homo sapiens) [compound 391]”, the Peptide exchange entry is given as “″+++″ (≥50% = +++)”.
To “392 (ALLHPQGFEV; listed as Homo sapiens) [compound 392]” belongs “″++″ (≥20% = ++)”; to “393 (GLLDTQTSQVLTA; listed as Homo sapiens) [compound 393]”, “″++″ (≥20% = ++)”; to “394 (LLAVIGGLVYL; listed as Homo sapiens) [compound 394]”, “″+++″ (≥50% = +++)”.
Then “395 (ALALGGIAVV; listed as Homo sapiens) [compound 395]”, with “″++++″ (≥75% = ++++)”; and “396 (ALLPDLPAL; listed as Homo sapiens) [compound 396]”, with “″+++″ (≥50% = +++)”.
Take “397 (YLFGERLLEC; listed as Homo sapiens) [compound 397]”: the Peptide exchange result is “″+++″ (≥50% = +++)”.
To “398 (KLLEEDGTIITL; listed as Homo sapiens) [compound 398]” belongs “″++″ (≥20% = ++)”.
Then “399 (YLFEPLYHV; listed as Homo sapiens) [compound 399]”, with “″+++″ (≥50% = +++)”; and “400 (SLLTEQDLWTV; listed as Homo sapiens) [compound 400]”, with “″++″ (≥20% = ++)”; and “401 (ILLDDTGLAYI; listed as Homo sapiens) [compound 401]”, with “″+++″ (≥50% = +++)”.
In the case of “402 (VLFSGALLGL; listed as Homo sapiens) [compound 402]”, the Peptide exchange entry was “″++″ (≥20% = ++)”.
To “403 (KLYDRILRV; listed as Homo sapiens) [compound 403]” belongs “″++″ (≥20% = ++)”; to “405 (ALYDVFLEV; listed as Homo sapiens) [compound 405]”, “″++″ (≥20% = ++)”; to “407 (YLMDLINFL; listed as Homo sapiens) [compound 407]”, “″+++″ (≥50% = +++)”.
To “408 (VLDDSIYLV; listed as Homo sapiens) [compound 408]” belongs “″++″ (≥20% = ++)”; to “409 (LLDAMNYHL; listed as Homo sapiens) [compound 409]”, “″++″ (≥20% = ++)”.
For the substance “412 (YLDDLNEGVYI; listed as Homo sapiens) [compound 412]”, the Peptide exchange entry is on record as “″++″ (≥20% = ++)”.
To “426 (RLADKSVLV; listed as Homo sapiens) [compound 426]” belongs “″+++″ (≥50% = +++)”; to “427 (ALLPLSPYL; listed as Homo sapiens) [compound 427]”, “″+++″ (≥50% = +++)”.
To “428 (KLGHTDILVGV; listed as Homo sapiens) [compound 428]” belongs “″++″ (≥20% = ++)”; to “429 (GLVNDLARV; listed as Homo sapiens) [compound 429]”, “″++″ (≥20% = ++)”; to “430 (HLYSSIEHLTT; listed as Homo sapiens) [compound 430]”, “″+++″ (≥50% = +++)”.
Then “431 (SLVNVVPKL; listed as Homo sapiens) [compound 431]”, with “″++″ (≥20% = ++)”; and “432 (TLIEESAKV; listed as Homo sapiens) [compound 432]”, with “″++″ (≥20% = ++)”; and “433 (AMLNEPWAV; listed as Homo sapiens) [compound 433]”, with “″+++″ (≥50% = +++)”.
For “434 (KVSNSGITRV; listed as Homo sapiens) [compound 434]”, the Peptide exchange result is “″++″ (≥20% = ++)”.
With “436 (HLAEVSAEV; listed as Homo sapiens) [compound 436]”, the Peptide exchange result is recorded as “″+++″ (≥50% = +++)”.
To “437 (SMAPGLVIQAV; listed as Homo sapiens) [compound 437]” belongs “″+++″ (≥50% = +++)”; to “438 (KLLPLAGLYL; listed as Homo sapiens) [compound 438]”, “″++++″ (≥75% = ++++)”; to “439 (YLLQEIYGI; listed as Homo sapiens) [compound 439]”, “″+++″ (≥50% = +++)”.
To “440 (ALADGVTMQV; listed as Homo sapiens) [compound 440]” belongs “″++″ (≥20% = ++)”; to “441 (ALLENPKMEL; listed as Homo sapiens) [compound 441]”, “″+++″ (≥50% = +++)”.
Turning to “442 (GLLGGGGVLGV; listed as Homo sapiens) [compound 442]”, the Peptide exchange entry was “″+++″ (≥50% = +++)”.
Turning to “444 (GLLRDEALAEV; listed as Homo sapiens) [compound 444]”, the Peptide exchange entry is given as “″+++″ (≥50% = +++)”.
Then “446 (QLIPALAKV; listed as Homo sapiens) [compound 446]”, with “″+++″ (≥50% = +++)”.
Then “447 (QLVPALAKV; listed as Homo sapiens) [compound 447]”, with “″++″ (≥20% = ++)”.
To “448 (NLLETKLQL; listed as Homo sapiens) [compound 448]” belongs “″+++″ (≥50% = +++)”.
For the substance “449 (KLAEGLDIQL; listed as Homo sapiens) [compound 449]”, the Peptide exchange entry is reported as “″+++″ (≥50% = +++)”.
As for “450 (FMIDASVHPTL; listed as Homo sapiens) [compound 450]”, the Peptide exchange entry is “″+++″ (≥50% = +++)”.
In the case of “451 (LLLLDTVTMQV; listed as Homo sapiens) [compound 451]”, the Peptide exchange entry is listed as “″++″ (≥20% = ++)”.
On to “452 (ILLEHGADPNL; listed as Homo sapiens) [compound 452]”, for which the Peptide exchange entry is given as “″+++″ (≥50% = +++)”.
“453 (KLLEATSAV; listed as Homo sapiens) [compound 453]”: the Peptide exchange entry is recorded as “″++″ (≥20% = ++)”.
Then “454 (KLPPPPPQA; listed as Homo sapiens) [compound 454]”, with “″+++″ (≥50% = +++)”; and “455 (SLLKEPQKVQL; listed as Homo sapiens) [compound 455]”, with “″++″ (≥20% = ++)”.
Consider “456 (LLIGHLERV; listed as Homo sapiens) [compound 456]”, for which the Peptide exchange entry is “″+++″ (≥50% = +++)”.
For “457 (SLLPGNLVEKV; listed as Homo sapiens) [compound 457]”, the Peptide exchange result is “″+++″ (≥50% = +++)”.
Then “458 (SLIDKLYNI; listed as Homo sapiens) [compound 458]”, with “″++″ (≥20% = ++)”; and “459 (ALITEVVRL; listed as Homo sapiens) [compound 459]”, with “″++″ (≥20% = ++)”.
Then “461 (VMFRTPLASV; listed as Homo sapiens) [compound 461]”, with “″++″ (≥20% = ++)”.
For “462 (KLAKQPETV; listed as Homo sapiens) [compound 462]”, the Peptide exchange entry was “″+++″ (≥50% = +++)”.
To “463 (SLVESHLSDQLTL; listed as Homo sapiens) [compound 463]” belongs “″+++″ (≥50% = +++)”; to “464 (ALNDCIYSV; listed as Homo sapiens) [compound 464]”, “″+++″ (≥50% = +++)”; to “465 (QLCDLNAEL; listed as Homo sapiens) [compound 465]”, “″+++″ (≥50% = +++)”.
To “466 (VLIANLEKL; listed as Homo sapiens) [compound 466]” belongs “″++++″ (≥75% = ++++)”; to “467 (FLAKDFNFL; listed as Homo sapiens) [compound 467]”, “″+++″ (≥50% = +++)”.
